Reference: patent US20240301052A1 (LANOVA MEDICINES DEVELOPMENT, published 2024)
Like-named read-outs stand apart in the source and are kept apart here.

Legend:
human SLC34A2 [1] = molecular target: T1, human SLC34A2 (human, UniProt O95436 1-690); test: FACS, HEK293/human SLC34A2 cells
T1 sequence (looked up): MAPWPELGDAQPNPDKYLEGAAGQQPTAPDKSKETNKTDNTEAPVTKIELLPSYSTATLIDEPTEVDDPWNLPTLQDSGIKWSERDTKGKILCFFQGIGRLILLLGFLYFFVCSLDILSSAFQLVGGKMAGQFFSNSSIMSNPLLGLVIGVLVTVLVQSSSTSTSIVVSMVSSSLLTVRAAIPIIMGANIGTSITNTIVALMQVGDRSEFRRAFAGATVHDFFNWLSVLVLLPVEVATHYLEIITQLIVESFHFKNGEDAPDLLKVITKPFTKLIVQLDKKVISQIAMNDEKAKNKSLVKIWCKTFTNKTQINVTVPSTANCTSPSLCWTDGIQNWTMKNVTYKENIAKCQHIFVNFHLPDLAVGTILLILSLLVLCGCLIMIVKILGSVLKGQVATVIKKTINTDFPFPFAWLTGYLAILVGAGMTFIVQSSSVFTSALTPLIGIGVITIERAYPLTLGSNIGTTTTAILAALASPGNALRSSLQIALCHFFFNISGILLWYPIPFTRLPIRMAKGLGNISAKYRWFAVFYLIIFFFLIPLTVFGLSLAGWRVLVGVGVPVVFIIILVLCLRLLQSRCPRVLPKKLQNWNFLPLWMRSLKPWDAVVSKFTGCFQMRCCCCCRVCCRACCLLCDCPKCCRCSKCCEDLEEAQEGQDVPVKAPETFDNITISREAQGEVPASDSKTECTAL

rat SLC34A2 = molecular target: T2, rat SLC34A2 (rat, UniProt Q9JJ09 1-695); test: FACS, HEK293/Rat SLC34A2 cells
T2 construct: whole, on cells
T2 sequence (looked up): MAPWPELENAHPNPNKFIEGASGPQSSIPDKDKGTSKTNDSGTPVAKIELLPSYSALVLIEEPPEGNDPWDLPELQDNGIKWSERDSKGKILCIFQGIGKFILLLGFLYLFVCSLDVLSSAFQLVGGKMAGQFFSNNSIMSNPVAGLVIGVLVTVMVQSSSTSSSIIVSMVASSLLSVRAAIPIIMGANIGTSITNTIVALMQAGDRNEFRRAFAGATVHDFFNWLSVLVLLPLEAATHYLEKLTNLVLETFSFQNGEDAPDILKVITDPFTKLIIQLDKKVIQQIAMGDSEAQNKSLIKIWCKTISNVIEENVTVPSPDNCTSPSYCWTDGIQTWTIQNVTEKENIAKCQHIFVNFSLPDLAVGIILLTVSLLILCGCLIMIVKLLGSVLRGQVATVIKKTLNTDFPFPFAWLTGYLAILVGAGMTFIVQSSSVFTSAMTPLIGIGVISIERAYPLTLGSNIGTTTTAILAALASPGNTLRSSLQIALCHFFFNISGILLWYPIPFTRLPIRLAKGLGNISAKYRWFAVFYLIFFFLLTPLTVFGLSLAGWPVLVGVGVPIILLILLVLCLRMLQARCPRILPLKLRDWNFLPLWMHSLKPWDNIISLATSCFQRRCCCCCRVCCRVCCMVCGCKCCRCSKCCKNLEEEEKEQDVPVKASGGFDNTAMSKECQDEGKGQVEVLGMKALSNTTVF

human SLC34A2 [2] = molecular target: T1, human SLC34A2; test: FACS, HEK293/human SLC34A2 cells; remark: listed apart in the source
Rhesus SLC34A2 = molecular target: T3, Rhesus SLC34A2 (Rhesus, UniProt F7HDA3 1-690); test: FACS, HEK293/Rhesus SLC34A2 cells
T3 construct: whole, on cells
T3 sequence: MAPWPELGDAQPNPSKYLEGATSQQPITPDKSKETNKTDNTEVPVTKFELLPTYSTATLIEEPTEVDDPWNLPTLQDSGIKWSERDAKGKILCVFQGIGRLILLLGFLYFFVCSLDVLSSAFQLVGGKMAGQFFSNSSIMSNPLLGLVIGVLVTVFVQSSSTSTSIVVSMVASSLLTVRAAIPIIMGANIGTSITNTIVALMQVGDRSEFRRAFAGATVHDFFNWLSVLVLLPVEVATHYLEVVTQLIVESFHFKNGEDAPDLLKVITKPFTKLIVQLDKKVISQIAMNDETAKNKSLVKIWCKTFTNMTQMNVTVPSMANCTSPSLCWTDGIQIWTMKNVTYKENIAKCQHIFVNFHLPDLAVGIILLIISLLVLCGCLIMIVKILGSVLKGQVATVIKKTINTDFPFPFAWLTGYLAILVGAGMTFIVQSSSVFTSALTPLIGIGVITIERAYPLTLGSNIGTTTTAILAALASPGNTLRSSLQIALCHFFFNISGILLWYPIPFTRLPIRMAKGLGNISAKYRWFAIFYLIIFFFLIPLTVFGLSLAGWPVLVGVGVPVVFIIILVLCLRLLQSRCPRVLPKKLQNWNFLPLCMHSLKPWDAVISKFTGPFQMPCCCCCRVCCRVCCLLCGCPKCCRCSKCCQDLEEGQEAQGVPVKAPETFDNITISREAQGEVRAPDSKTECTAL

human SLC34A2 [3] = molecular target: T1, human SLC34A2; test: FACS, OVCAR3 cells
human SLC34A2 [4] = molecular target: T1, human SLC34A2; test: FACS, OVCAR3 cells; remark: listed apart in the source
human SLC34A2 [5] = molecular target: T1, human SLC34A2; test: cell-based or functional assay
[6] = molecular target: Cynomolgus SLC34A2 (Cynomolgus); test: FACS, cells expressing Cynomolgus SLC34A2
human SLC34A2 [7] = molecular target: T1, human SLC34A2; test: FACS, OVCAR3 cells; remark: listed apart in the source

B1: XMT-1536 (antibody, INN chains, looked up, V domains shown)
VH: QVQLVQSGAEVVKPGASVKMSCKASGYTFTGYNIHWVKQAPGQGLEWIGAIYPGNGDTSYKQKFRGRATLTADTSTSTVYMELSSLRSEDSAVYYCARGETARATFAYWGQGTLVTVSS
VL: DIQMTQSPSSLSASVGDRVTITCSASQDIGNFLNWYQQKPGKTVKVLIYYTSSLYSGVPSRFSGSGSGTDYTLTISSLQPEDFATYYCQQYSKLPLTFGQGTKLELK
modifications: rilsodotin auristatin payload
EC50 (human SLC34A2 [1]): 4.05 nM
Top (human SLC34A2 [1]): 34700 MFI
EC50 (rat SLC34A2): 4.48 nM
EC50 (human SLC34A2 [2]): 2.68 nM
Top (human SLC34A2 [2]): 32400 MFI
EC50 (Rhesus SLC34A2): 5.8 nM
Top (MFI) (Rhesus SLC34A2): 27000 MFI
EC50 (human SLC34A2 [3]): 3.8 nM
Top (human SLC34A2 [3]): 29000 MFI
Top (MFI) (human SLC34A2 [3]): 58400 MFI
EC50 (human SLC34A2 [4]): 6.87 nM
Top (MFI) (human SLC34A2 [4]): 29000 MFI
ADCC reporter EC50 (human SLC34A2 [5]): 0.76 nM
ADCC reporter Top (MFI) (human SLC34A2 [5]): 127000 MFI
ADCC-HEK293 (human SLC34A2 [5]): 0.76 nM
ADCC-OVCAR3 (human SLC34A2 [5]): 0.25 nM
Cytotoxic Effect - MDAH-2774 (human SLC34A2 [5]): 0.28 nM
Cytotoxic Effect - OVCAR3 (human SLC34A2 [5]): 0.029 nM
cytotoxicity EC50 (human SLC34A2 [5]): 0.72 nM
cytotoxicity Inhibition % (human SLC34A2 [5]): 100%
EC50 [6]: 3.72 nM
EC50 (human SLC34A2 [7]): 6.82 nM
